Assays:
[1] = test system: RFTS-containing DNMT1 A554V (human); test: fluorescence polarization; details: 5-methylcytosine on one strand (hemimethylated), 100 nM DNA, 28 °C, triplicate, hyperbolic fit, buffer, salt and pH not given (as in ref [25])
[2] = test system: RFTS-containing DNMT1 wild-type (human); test: fluorescence polarization; details: 5-methylcytosine on one strand (hemimethylated), 100 nM DNA, 28 °C, triplicate, hyperbolic fit, buffer, salt and pH not given (as in ref [25])

Substance 18 bp hemimethylated duplex DNA has a Kd [1] of 550 nM and a Kd [2] of 4600 nM.
